The results in this text go back to patent US20060067886A1, “Gastrin receptor-avid peptide conjugates” (priority 1997, published 2006).

The nature of this data set: Biodistribution of radiometal-DOTA-BBN conjugates in CF1 normal mice. Conditions: 1 hour post-injection.

As to `CSCC[C@H](NC(=O)[C@H](CC(C)C)NC(=O)[C@H](Cc1c[nH]cn1)NC(=O)CNC(=O)[C@@H](NC(=O)[C@H](C)NC(=O)[C@H](Cc1c[nH]c2ccccc12)NC(=O)[C@H](CCC(N)=O)NC(=O)CCCCNC(=O)CN1CCN(CC(=O)O)CCN(CC(=O)O)CCN(CC(=O)O)CC1)C(C)C)C(N)=O` [177Lu-DOTA-5-Ava-BBN[7-14]NH2] [metal not drawn], the “Avg % ID, Blood” value was determined as 0.35 ± 0.31 % ID; the “Avg % ID, Carcass” value worked out at 2.77 ± 0.75 % ID; the “Avg % ID, Heart” value amounted to 0.04 ± 0.05 % ID; the “Avg % ID, Kidney” value was found to be 0.69 ± 0.33 % ID. Also, the “Avg % ID, L. Intestine” value came to 3.52 ± 1.37 % ID; the “Avg % ID, Liver” value turned out to be 0.14 ± 0.06 % ID; the “Avg % ID, Lung” value was 0.08 ± 0.15 % ID; the “Avg % ID, Muscle” value stood at 0.09 ± 0.12 % ID. Besides, the “Avg % ID, Pancreas” value is 3.78 ± 1.09 % ID; the “Avg % ID, S. Intestine” value is listed as 3.80 ± 1.87 % ID; the “Avg % ID, Spleen” value is 0.18 ± 0.12 % ID; the “Avg % ID, Stomach” value came out at 0.73 ± 1.33 % ID. The “Avg % ID/gm, Blood” value is recorded as 0.22 ± 0.19 % ID/gm; the “Avg % ID/gm, Heart” value was 0.34 ± 0.35 % ID/gm; the “Avg % ID/gm, Kidney” value was 2.03 ± 1.02 % ID/gm; the “Avg % ID/gm, L. Intestine” value is given as 3.78 ± 1.23 % ID/gm. Besides, the “Avg % ID/gm, Liver” value turned out to be 0.09 ± 0.04 % ID/gm; the “Avg % ID/gm, Lung” value was determined as 0.47 ± 0.84 % ID/gm; the “Avg % ID/gm, Muscle” value was found to be 0.67 ± 0.90 % ID/gm; the “Avg % ID/gm, Pancreas” value was determined as 16.41 ± 1.38 % ID/gm. For the same compound, the “Avg % ID/gm, S. Intestine” value was determined as 2.55 ± 1.31 % ID/gm; the “Avg % ID/gm, Spleen” value was 1.26 ± 0.69 % ID/gm; the “Avg % ID/gm, Stomach” value is 1.48 ± 2.25 % ID/gm.

Regarding `CSCC[C@H](NC(=O)[C@H](CC(C)C)NC(=O)[C@H](Cc1c[nH]cn1)NC(=O)CNC(=O)[C@@H](NC(=O)[C@H](C)NC(=O)[C@H](Cc1c[nH]c2ccccc12)NC(=O)[C@H](CCC(N)=O)NC(=O)CCCCCCCCCCNC(=O)CN1CCN(CC(=O)O)CCN(CC(=O)O)CCN(CC(=O)O)CC1)C(C)C)C(N)=O` [177Lu-DOTA-11-Aun-BBN[7-14]NH2] [metal not drawn], the “Avg % ID, Blood” value stood at 0.47 ± 0.54 % ID; the “Avg % ID, Carcass” value came out at 6.69 ± 2.48 % ID; the “Avg % ID, Heart” value stood at 0.19 ± 0.29 % ID; the “Avg % ID, Kidney” value was found to be 1.76 ± 0.25 % ID. Moreover, the “Avg % ID, L. Intestine” value is recorded as 5.03 ± 0.46 % ID; the “Avg % ID, Liver” value stood at 2.26 ± 0.46 % ID; the “Avg % ID, Lung” value is listed as 0.17 ± 0.22 % ID; the “Avg % ID, Muscle” value amounted to 0.11 ± 0.18 % ID. In addition, the “Avg % ID, Pancreas” value stood at 6.89 ± 1.20 % ID; the “Avg % ID, S. Intestine” value was 17.10 ± 3.60 % ID; the “Avg % ID, Spleen” value was 0.24 ± 0.24 % ID; the “Avg % ID, Stomach” value was determined as 0.64 ± 0.35 % ID. Further, the “Avg % ID/gm, Blood” value is 0.78 ± 1.10 % ID/gm; the “Avg % ID/gm, Heart” value turned out to be 1.56 ± 2.40 % ID/gm; the “Avg % ID/gm, Kidney” value stood at 4.97 ± 0.61 % ID/gm; the “Avg % ID/gm, L. Intestine” value was found to be 6.31 ± 0.86 % ID/gm. In addition, the “Avg % ID/gm, Liver” value turned out to be 1.65 ± 0.29 % ID/gm; the “Avg % ID/gm, Lung” value was 0.73 ± 0.81 % ID/gm; the “Avg % ID/gm, Muscle” value is on record as 0.75 ± 1.12 % ID/gm; the “Avg % ID/gm, Pancreas” value came out at 35.48 ± 2.39 % ID/gm. Moreover, the “Avg % ID/gm, S. Intestine” value was found to be 12.58 ± 1.73 % ID/gm; the “Avg % ID/gm, Spleen” value worked out at 1.78 ± 1.87 % ID/gm; the “Avg % ID/gm, Stomach” value is 1.82 ± 1.12 % ID/gm.

As for `CSCC[C@H](NC(=O)[C@H](CC(C)C)NC(=O)[C@H](Cc1cnc[nH]1)NC(=O)CNC(=O)[C@@H](NC(=O)[C@H](C)NC(=O)[C@H](Cc1c[nH]c2ccccc12)NC(=O)[C@H](CCC(N)=O)NC(=O)CCNC(=O)CN1CCN(CC(=O)O)CCN(CC(=O)O)CCN(CC(=O)O)CC1)C(C)C)C(N)=O` [177Lu-DOTA-β-Ala-BBN[7-14]NH2] [metal not drawn], the “Avg % ID, Blood” value was 0.24 ± 0.25 % ID; the “Avg % ID, Carcass” value came to 2.73 ± 1.08 % ID; the “Avg % ID, Heart” value is recorded as 0.05 ± 0.08 % ID; the “Avg % ID, Kidney” value was 0.63 ± 0.14 % ID. Besides, the “Avg % ID, L. Intestine” value is listed as 0.36 ± 0.17 % ID; the “Avg % ID, Liver” value is 0.21 ± 0.09 % ID; the “Avg % ID, Lung” value was determined as 0.04 ± 0.06 % ID; the “Avg % ID, Muscle” value stood at 0.11 ± 0.18 % ID. Moreover, the “Avg % ID, Pancreas” value amounted to 0.32 ± 0.07 % ID; the “Avg % ID, S. Intestine” value is 0.64 ± 0.20 % ID; the “Avg % ID, Spleen” value is 0.05 ± 0.04 % ID; the “Avg % ID, Stomach” value is given as 0.13 ± 0.09 % ID. Further, the “Avg % ID/gm, Blood” value was 0.16 ± 0.17 % ID/gm; the “Avg % ID/gm, Heart” value was 0.43 ± 0.70 % ID/gm; the “Avg % ID/gm, Kidney” value was 1.88 ± 0.37 % ID/gm; the “Avg % ID/gm, L. Intestine” value turned out to be 0.45 ± 0.19 % ID/gm. In addition, the “Avg % ID/gm, Liver” value was 0.15 ± 0.06 % ID/gm; the “Avg % ID/gm, Lung” value is recorded as 0.23 ± 0.33 % ID/gm; the “Avg % ID/gm, Muscle” value is 0.94 ± 1.54 % ID/gm; the “Avg % ID/gm, Pancreas” value is listed as 1.44 ± 0.26 % ID/gm. Besides, the “Avg % ID/gm, S. Intestine” value came out at 0.49 ± 0.10 % ID/gm; the “Avg % ID/gm, Spleen” value is 0.31 ± 0.31 % ID/gm; the “Avg % ID/gm, Stomach” value is 0.34 ± 0.18 % ID/gm.
